Source: publication PMC4346921, “Identification of the Specific Interactors of the Human Lariat RNA Debranching Enzyme 1 Protein” (International Journal of Molecular Sciences, 2015)

Biological target: T1, GST-hDbr1 (human, UniProt Q9UK59-1 1-544)
T1 construct: human Dbr1, cDNA NM_016216 inserted into BamHI and XhoI sites of GEX-6P-1; also called GST-hDbr1 protein; recombinant Dbr1 protein fused to GST; source: E. coli BL21 (DE3) CodonPlus-RIPL, purified (Glutathione Sepharose)
T1 sequence (looked up): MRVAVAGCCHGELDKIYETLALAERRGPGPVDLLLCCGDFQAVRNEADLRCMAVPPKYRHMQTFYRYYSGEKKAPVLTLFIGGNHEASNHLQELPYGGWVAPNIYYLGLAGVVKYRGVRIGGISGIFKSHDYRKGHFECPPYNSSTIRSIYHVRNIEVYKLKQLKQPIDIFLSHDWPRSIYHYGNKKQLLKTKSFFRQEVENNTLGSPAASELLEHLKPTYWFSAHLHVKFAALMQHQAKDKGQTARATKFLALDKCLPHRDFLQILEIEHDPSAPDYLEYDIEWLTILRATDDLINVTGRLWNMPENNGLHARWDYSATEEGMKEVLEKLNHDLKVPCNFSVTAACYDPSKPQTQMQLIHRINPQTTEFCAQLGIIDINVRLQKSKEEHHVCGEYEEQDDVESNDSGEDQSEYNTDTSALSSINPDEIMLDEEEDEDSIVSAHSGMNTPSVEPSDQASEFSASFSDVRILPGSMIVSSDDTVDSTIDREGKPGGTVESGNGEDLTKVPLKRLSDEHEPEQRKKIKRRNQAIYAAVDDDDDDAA
Experiment: pull-down; 2 μg purified His-tagged (T7-His) hDrn1 incubated with 5 μg GST or GST-hDbr1; bound proteins detected by Western blotting with anti-T7 tag antibody
Settings: both partners purified

binding result: binds
B1: T7-His-hDrn1 (natural protein, human, UniProt Q69YN2-1 1-538, looked up)
chain: MAQKPLRLLACGDVEGKFDILFNRVQAIQKKSGNFDLLLCVGNFFGSTQDAEWEEYKTGIKKAPIQTYVLGANNQETVKYFQDADGCELAENITYLGRKGIFTGSSGLQIVYLSGTESLNEPVPGYSFSPKDVSSLRMMLCTTSQFKGVDILLTSPWPKCVGNFGNSSGEVDTKKCGSALVSSLATGLKPRYHFAALEKTYYERLPYRNHIILQENAQHATRFIALANVGNPEKKKYLYAFSIVPMKLMDAAELVKQPPDVTENPYRKSGQEASIGKQILAPVEESACQFFFDLNEKQGRKRSSTGRDSKSSPHPKQPRKPPQPPGPCWFCLASPEVEKHLVVNIGTHCYLALAKGGLSDDHVLILPIGHYQSVVELSAEVVEEVEKYKATLRRFFKSRGKWCVVFERNYKSHHLQLQVIPVPISCSTTDDIKDAFITQAQEQQIELLEIPEHSDIKQIAQPGAAYFYVELDTGEKLFHRIKKNFPLQFGREVLASEAILNVPDKSDWRQCQISKEDEETLARRFRKDFEPYDFTLDD
notes: Cwf19L1/hDrn1 cDNA (NM_018294), same fragment as in myc-/Flag-hDrn1, between BamHI and XhoI sites of pET-28a; pET-28a with BamHI/XhoI would place the His and T7 tags at the N-terminus (surmised); also called T7- and His-tagged hDrn1 protein; His-tagged hDrn1; source: E. coli BL21 (DE3) CodonPlus-RIPL, purified (Ni-NTA)
